Test results taken from doi:10.1101/2025.02.20.639226, “In vitro reconstitution of minimal human centrosomes” (bioRxiv, 2025).

Assays:
[1] = molecular target: GFP::CDK5RAP2 isoform B (full-length, wild type) (human) (UniProt Q96SN8); assay: partitioning into in vitro scaffolds, confocal fluorescence microscopy; 4-component asters: 167nm GFP::CDK5RAP2, 33nM mBFP::γ-TuRCs, 33nM mCherry::HSET, 13μM HiLyte-647-labeled α/β tubulin; 50mM KCl, 25mM HEPES, pH7.4, IgM+; no ATP·MgCl2; compared with 3-component asters
Chain of GFP::CDK5RAP2 isoform B (full-length, wild type) (human) (Q96SN8 other isoform, or with tags, fused parts or gaps): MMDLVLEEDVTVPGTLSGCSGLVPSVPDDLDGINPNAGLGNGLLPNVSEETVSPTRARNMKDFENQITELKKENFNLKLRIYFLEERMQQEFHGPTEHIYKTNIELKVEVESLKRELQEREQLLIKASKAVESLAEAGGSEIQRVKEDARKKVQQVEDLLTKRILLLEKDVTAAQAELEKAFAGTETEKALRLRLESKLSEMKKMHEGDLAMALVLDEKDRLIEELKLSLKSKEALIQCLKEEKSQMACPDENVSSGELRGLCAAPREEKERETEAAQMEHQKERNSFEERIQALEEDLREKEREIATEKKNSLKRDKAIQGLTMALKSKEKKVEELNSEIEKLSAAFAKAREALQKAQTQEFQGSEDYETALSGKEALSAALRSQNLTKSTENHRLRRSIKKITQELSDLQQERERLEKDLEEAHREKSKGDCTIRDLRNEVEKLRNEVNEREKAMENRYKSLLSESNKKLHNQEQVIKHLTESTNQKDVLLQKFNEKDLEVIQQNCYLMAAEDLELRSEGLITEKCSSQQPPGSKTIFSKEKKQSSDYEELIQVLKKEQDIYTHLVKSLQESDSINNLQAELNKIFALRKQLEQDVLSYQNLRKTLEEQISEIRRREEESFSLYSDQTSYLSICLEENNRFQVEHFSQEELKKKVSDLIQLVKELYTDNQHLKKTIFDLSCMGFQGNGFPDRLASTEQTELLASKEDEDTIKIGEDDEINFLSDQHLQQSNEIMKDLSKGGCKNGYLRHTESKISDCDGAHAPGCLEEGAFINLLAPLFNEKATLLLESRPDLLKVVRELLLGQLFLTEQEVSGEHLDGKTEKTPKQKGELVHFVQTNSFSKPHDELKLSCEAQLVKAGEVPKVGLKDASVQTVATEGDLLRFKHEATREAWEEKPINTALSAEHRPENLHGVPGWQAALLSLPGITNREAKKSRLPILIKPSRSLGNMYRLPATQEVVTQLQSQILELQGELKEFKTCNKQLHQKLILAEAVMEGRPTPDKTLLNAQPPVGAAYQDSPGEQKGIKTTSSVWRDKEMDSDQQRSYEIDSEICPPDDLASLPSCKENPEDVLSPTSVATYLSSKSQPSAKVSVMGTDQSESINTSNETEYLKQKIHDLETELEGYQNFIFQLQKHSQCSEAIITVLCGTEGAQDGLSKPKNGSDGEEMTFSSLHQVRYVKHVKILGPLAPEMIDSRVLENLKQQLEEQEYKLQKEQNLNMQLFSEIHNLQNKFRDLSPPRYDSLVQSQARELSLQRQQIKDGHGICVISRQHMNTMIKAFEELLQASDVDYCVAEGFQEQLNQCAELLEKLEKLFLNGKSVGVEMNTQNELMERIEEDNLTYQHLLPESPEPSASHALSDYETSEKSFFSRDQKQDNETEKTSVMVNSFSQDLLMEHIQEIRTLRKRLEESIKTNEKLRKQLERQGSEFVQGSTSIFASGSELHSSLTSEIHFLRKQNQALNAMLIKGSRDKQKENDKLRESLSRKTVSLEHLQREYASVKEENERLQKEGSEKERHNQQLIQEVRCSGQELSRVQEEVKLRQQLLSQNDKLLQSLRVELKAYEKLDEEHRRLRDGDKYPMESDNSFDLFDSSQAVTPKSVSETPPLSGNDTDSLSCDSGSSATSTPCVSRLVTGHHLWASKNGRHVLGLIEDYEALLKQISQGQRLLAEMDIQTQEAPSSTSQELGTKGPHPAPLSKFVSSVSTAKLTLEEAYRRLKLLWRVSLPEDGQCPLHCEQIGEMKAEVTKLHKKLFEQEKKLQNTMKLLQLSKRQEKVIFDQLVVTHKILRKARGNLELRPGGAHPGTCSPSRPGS

[2] = molecular target: T1, GFP::CDK5RAP2 isoform B (full-length, wild type) (human, UniProt Q96SN8-4 1-1814); assay: partitioning into in vitro scaffolds, confocal fluorescence microscopy; GFP::CDK5RAP2 assemblies (120nM) induced with anti-CM2 IgM; mCherry, full-length or ΔIDR mCherry::HSET at 50nM; 50mM KCl, 25mM HEPES; partition coefficient; details: both partners purified
T1 construct: CDK5 regulatory subunit-associated protein 2 (CDK5RAP2/CEP215), human, isoform B, Protein ID Q96SN8-4, lacking a.a; 1576-1654 of the longest isoform; Stood in the assays as micron-scale assemblies nucleated by an anti-CM2 IgM; also called CEP215; GFP::CDK5RAP2 scaffolds; source: SF9 insect cells (baculovirus, FlexiBAC), purified (Ni-NTA, MBP trap beads, eluted with PreScission protease)
T1 sequence (Q96SN8 other isoform, or with tags, fused parts or gaps): as above

In the case of “human gamma tubulin ring complex tagged with blue fluorescent protein (mBFP::γ-TuRC) (from UniProt P23258 1-451)”, the fold more recruited into scaffolds in the presence of mCherry::HSET (4-component against 3-component) [1] is reported as 1.4 fold.

B1: mCherry::HSET (full-length, wild type) (natural protein, human, UniProt Q9BW19 1-673, looked up)
chain: MDPQRSPLLEVKGNIELKRPLIKAPSQLPLSGSRLKRRPDQMEDGLEPEKKRTRGLGATTKITTSHPRVPSLTTVPQTQGQTTAQKVSKKTGPRCSTAIATGLKNQKPVPAVPVQKSGTSGVPPMAGGKKPSKRPAWDLKGQLCDLNAELKRCRERTQTLDQENQQLQDQLRDAQQQVKALGTERTTLEGHLAKVQAQAEQGQQELKNLRACVLELEERLSTQEGLVQELQKKQVELQEERRGLMSQLEEKERRLQTSEAALSSSQAEVASLRQETVAQAALLTEREERLHGLEMERRRLHNQLQELKGNIRVFCRVRPVLPGEPTPPPGLLLFPSGPGGPSDPPTRLSLSRSDERRGTLSGAPAPPTRHDFSFDRVFPPGSGQDEVFEEIAMLVQSALDGYPVCIFAYGQTGSGKTFTMEGGPGGDPQLEGLIPRALRHLFSVAQELSGQGWTYSFVASYVEIYNETVRDLLATGTRKGQGGECEIRRAGPGSEELTVTNARYVPVSCEKEVDALLHLARQNRAVARTAQNERSSRSHSVFQLQISGEHSSRGLQCGAPLSLVDLAGSERLDPGLALGPGERERLRETQAINSSLSTLGLVIMALSNKESHVPYRNSKLTYLLQNSLGGSAKMLMFVNISPLEENVSESLNSLRFASKVNQCVIGTAQANRK
notes: HSET/KifC1, kinesin-14 motor protein, human; also called KifC1; HSET/KifC1; source: SF9 insect cells (baculovirus, FlexiBAC), purified (Ni-NTA)
B1: binds [2].
